From article PMC9463131, “SLITRK1-mediated noradrenergic projection suppression in the neonatal prefrontal cortex” (Communications Biology, 2022)
Residue numbers refer to the chain shown, from its start. Values belong to the binder of their own block, whether it stands above or below them.

Legend:
[1] = target: T1, SLITRK1-A444S-Fc (human, UniProt Q96PX8 18-616, A444S); experiment: BLI
T1 sequence: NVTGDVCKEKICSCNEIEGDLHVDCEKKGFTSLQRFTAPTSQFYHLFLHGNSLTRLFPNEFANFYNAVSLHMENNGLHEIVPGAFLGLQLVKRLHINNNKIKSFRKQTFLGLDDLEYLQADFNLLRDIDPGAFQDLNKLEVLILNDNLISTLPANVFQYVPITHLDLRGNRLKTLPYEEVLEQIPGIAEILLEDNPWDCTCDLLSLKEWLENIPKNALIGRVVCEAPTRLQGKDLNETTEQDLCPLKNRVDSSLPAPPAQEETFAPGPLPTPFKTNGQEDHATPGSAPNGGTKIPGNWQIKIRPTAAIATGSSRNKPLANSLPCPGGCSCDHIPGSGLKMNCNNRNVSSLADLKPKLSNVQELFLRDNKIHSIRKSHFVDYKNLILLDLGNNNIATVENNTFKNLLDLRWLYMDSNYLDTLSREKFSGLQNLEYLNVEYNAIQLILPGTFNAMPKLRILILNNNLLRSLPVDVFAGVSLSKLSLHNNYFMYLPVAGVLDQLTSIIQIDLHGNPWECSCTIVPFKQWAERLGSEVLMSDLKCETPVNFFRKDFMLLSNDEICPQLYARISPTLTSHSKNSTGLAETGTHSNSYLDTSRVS

[2] = target: T2, SLITRK1-S330A-Fc (human, UniProt Q96PX8 18-616, S330A); experiment: BLI
T2 sequence: T1 sequence with S313A, S427A

[3] = target: T3, SLITRK1-A444S-Fc (human, UniProt Q96PX8 18-616, A444S); experiment: quartz crystal microbalance; AffinixQ, 27 MHz; about 200 femtomoles SLITRK1 ECD-Fc (WT, S330A or A444S) immobilised through anti-human IgG Fc on the gold resonator; ECD-His6 proteins added at several concentrations; 50 mM Tris-HCl pH 7.6, 15 mM NaCl, 140 mM KCl, 0.5 mM MgCl2, 2 mM CaCl2; 25 ± 1 °C; KD = koff/kon; conditions: both partners purified
T3 construct: signal peptide in the construct; human SLITRK1 extracellular domain, amino acid number 1-616 in NP_443142, with the patient-derived variant A444S; A444S was found in 2 of 364 patients with bipolar disorder; made by site-directed mutagenesis; also called SLITRK1 ECD-Fc A444S
T3 sequence (looked up): T1 sequence

[4] = target: T4, SLITRK1 ECD-immunoglobulin Fc domain-fusion protein (SLITRK1-WT-Fc) (human, UniProt Q96PX8 18-616); experiment: as above; conditions: both partners purified
T4 construct: signal peptide in the construct; human SLITRK1 extracellular domain, amino acid number 1-616 in NP_443142; also called SLITRK1 ECD-Fc; SLITRK1 ECD-Fc fusion protein
T4 sequence (looked up): T1 sequence with S427A

[5] = target: T5, SLITRK1-S330A-Fc (human, UniProt Q96PX8 18-616, S330A); experiment: as above; conditions: both partners purified
T5 construct: signal peptide in the construct; human SLITRK1 extracellular domain, amino acid number 1-616 in NP_443142, with the patient-derived variant S330A; S330A is a variant found in patients and controls (global MAF 0.002); made by site-directed mutagenesis; also called SLITRK1 ECD-Fc S330A
T5 sequence (looked up): T1 sequence with S313A, S427A

[6] = target: T1, SLITRK1-A444S-Fc; experiment: BLI; remark: listed apart in the source
[7] = target: T2, SLITRK1-S330A-Fc; experiment: BLI; remark: listed apart in the source

koff [1]: 0.00577 s⁻¹
koff [2]: 0.00665 s⁻¹
Kd [3]: 14.2 nM
Kd [4]: 16.6 nM
Kd [5]: 59.3 nM
B1: human Neurofascin ECD-His6 (8208-NF-050, R&D Systems) (domain or fragment)
chain: IEIPMDLTQPPTITKQSAKDHIVDPRDNILIECEAKGNPAPSFHWTRNSRFFNIAKDPRVSMRRRSGTLVIDFRSGGRPEEYEGEYQCFARNKFGTALSNRIRLQVSKSPLWPKENLDPVVVQEGAPLTLQCNPPPGLPSPVIFWMSSSMEPITQDKRVSQGHNGDLYFSNVMLQDMQTDYSCNARFHFTHTIQQKNPFTLKVLTNHPYNDSSLRNHPDMYSARGVAERTPSFMYPQGTASSQMVLRGMDLLLECIASGVPTPDIAWYKKGGDLPSDKAKFENFNKALRITNVSEEDSGEYFCLASNKMGSIRHTISVRVKAAPYWLDEPKNLILAPGEDGRLVCRANGNPKPTVQWMVNGEPLQSAPPNPNREVAGDTIIFRDTQISSRAVYQCNTSNEHGYLLANAFVSVLDVPPRMLSPRNQLIRVILYNRTRLDCPFFGSPIPTLRWFKNGQGSNLDGGNYHVYENGSLEIKMIRKEDQGIYTCVATNILGKAENQVRLEVKDPTRIYRMPEDQVARRGTTVQLECRVKHDPSLKLTVSWLKDDEPLYIGNRMKKEDDSLTIFGVAERDQGSYTCVASTELDQDLAKAYLTVLGRPDRPRDLELTDLAERSVRLTWIPGDANNSPITDYVVQFEEDQFQPGVWHDHSKYPGSVNSAVLRLSPYVNYQFRVIAINEVGSSHPSLPSERYRTSGAPPESNPGDVKGEGTRKNNMEITWTPMNATSAFGPNLRYIVKWRRRETREAWNNVTVWGSRYVVGQTPVYVPYEIRVQAENDFGKGPEPESVIGYSGEDYPRAAPTEVKVRVMNSTAISLQWNRVYSDTVQGQLREYRAYYWRESSLLKNLWVSQKRQQASFPGDRLRGVVSRLFPYSNYKLEMVVVNGRGDGPRSETKEFTTPEGVPSAPRRFRVRQPNLETINLEWDHPEHPNGIMIGYTLKYVAFNGTKVGKQIVENFSPNQTKFTVQRTDPVSRYRFTLSARTQVGSGEAVTEESPAPPNEAYTNNQADIATQGW

koff [1]: 0.0008 s⁻¹
koff [2]: 0.00084 s⁻¹
Kd [6]: 4.69 nM
Kd [7]: 5.83 nM
B2: L1CAM ECD-His6 (777-NC-100, R&D Systems) (domain or fragment)
chain: IQIPEEYEGHHVMEPPVITEQSPRRLVVFPTDDISLKCEASGKPEVQFRWTRDGVHFKPKEELGVTVYQSPHSGSFTITGNNSNFAQRFQGIYRCFASNKLGTAMSHEIRLMAEGAPKWPKETVKPVEVEEGESVVLPCNPPPSAEPLRIYWMNSKILHIKQDERVTMGQNGNLYFANVLTSDNHSDYICHAHFPGTRTIIQKEPIDLRVKATNSMIDRKPRLLFPTNSSSHLVALQGQPLVLECIAEGFPTPTIKWLRPSGPMPADRVTYQNHNKTLQLLKVGEEDDGEYRCLAENSLGSARHAYYVTVEAAPYWLHKPQSHLYGPGETARLDCQVQGRPQPEVTWRINGIPVEELAKDQKYRIQRGALILSNVQPSDTMVTQCEARNRHGLLLANAYIYVVQLPAKILTADNQTYMAVQGSTAYLLCKAFGAPVPSVQWLDEDGTTVLQDERFFPYANGTLGIRDLQANDTGRYFCLAANDQNNVTIMANLKVKDATQITQGPRSTIEKKGSRVTFTCQASFDPSLQPSITWRGDGRDLQELGDSDKYFIEDGRLVIHSLDYSDQGNYSCVASTELDVVESRAQLLVVGSPGPVPRLVLSDLHLLTQSQVRVSWSPAEDHNAPIEKYDIEFEDKEMAPEKWYSLGKVPGNQTSTTLKLSPYVHYTFRVTAINKYGPGEPSPVSETVVTPEAAPEKNPVDVKGEGNETTNMVITWKPLRWMDWNAPQVQYRVQWRPQGTRGPWQEQIVSDPFLVVSNTSTFVPYEIKVQAVNSQGKGPEPQVTIGYSGEDYPQAIPELEGIEILNSSAVLVKWRPVDLAQVKGHLRGYNVTYWREGSQRKHSKRHIHKDHVVVPANTTSVILSGLRPYSSYHLEVQAFNGRGSGPASEFTFSTPEGVPGHPEALHLECQSNTSLLLRWQPPLSHNGVLTGYVLSYHPLDEGGKGQLSFNLRDPELRTHNLTDLSPHLRYRFQLQATTKEGPGEAIVREGGTMALSGISDFGNISATAGENYSVVSWVPKEGQCNFRFHILFKALGEEKGGASLSPQYVSYNQSSYTQWDLQPDTDYEIHLFKERMFRHQMAVKTNGTGRVRLPPAGFATE
